In US11994512B2, “Single-cell genomic methods to generate ex vivo cell systems that recapitulate in vivo biology with improved fidelity” (Massachusetts Institute of Technology, priority 2018, dated 2024):

Test system: intracellular proteome of ENR+CD and ENR organoids
Assay: LC-MS/MS TMT proteomics of ENR+CD versus ENR organoids
Format: cell-based, C57BL/6 mice
Conditions: for Average logFC: ENR+CD versus ENR organoids, sample pairs in aggregate (n=4, 2 technical replicates from two biological donors); for M1-1 Log2 Median Normalized / M1-2 Log2 Median Normalized / M2-1 Log2 Median Normalized / M2-2 Log2 Median Normalized: protein abundance ratio ENR+CD versus ENR organoids, LC-MS/MS TMT proteomics; for M1-1 Log2 Median Normalized: sample pair M1-1; for M1-2 Log2 Median Normalized: sample pair M1-2; for M2-1 Log2 Median Normalized: sample pair M2-1; for M2-2 Log2 Median Normalized: sample pair M2-2; for change: up = enriched in ENR+CD, down = enriched in ENR, FDR<0.05 and log fold change cut-off

Molecule | Average logFC | M1-1 Log2 Median Normalized | M1-2 Log2 Median Normalized | M2-1 Log2 Median Normalized | M2-2 Log2 Median Normalized | change
Q9QXE2 (protein, UniProt Q9QXE2 1-573, looked up, full-length) MDPQGIVKAFPKRKKSHADLSSKALAKIPKREVGEARGWLSSLRAHIMPAGIGRARAELFEKQIIHHGGQVCSAQAPGVTHIVVDEDMDYERALRLLRLPQLPPGAQLVKSTWLSLCLQEGRLTDTEGFSLPMPKRSLDEPQPSKSGQDASAPGTQRDLPRTTLSLSPPHTRAVSPPPTAEKPSRTQAQLSSEDETSDGEGPQVSSADLQALITGHYPTPPEEDGGPDPAPEALDKWVCAQPSSQKATNYNLHITEKLEVLAKAYSVQGDKWRALGYAKAINALKSFHKPVSSYQEACSIPGIGKRMAEKVMEILESGHLRKLDHISDSVPVLELFSNIWGAGTKTAQMWYHQGFRNLEDLQSLGSLTAQQAIGLKHYDDFLDRMPREEAAEIEQTVRISAQAFNPGLLCVACGSYRRGKMTCGDVDVLITHPDGRSHRGIFSCLLDSLRQQGFLTDDLVSQEENGQQQKYLGVCRLPGPGKRHRRLDIIVVPYCEFACALLYFTGSAHFNRSMRALAKTKGMSLSEHALSAAVVRNSQGVKVGPGQVLPTPTEKDVFKHLGLPYREPAERDW | 1.478 | 0.861 | 1.509 | 1.4485 | 2.093 | up
Q9JJ78 (protein, UniProt Q9JJ78 1-330, looked up, full-length) MEGINNFKTPNKSEKRKSVLCSTPCVNIPASPFMQKLGFGTGVSVYLMKRSPRGLSHSPWAVKKISLLCDDHYRTVYQKRLTDEAKILKNLNHPNIIGYRAFTEASDGSLCLAMEYGGEKSLNDLIEERNKDSGSPFPAAVILRVALHMARGLKYLHQEKKLLHGDIKSSNVVIKGDFETIKICDVGVSLPLDENMTVTDPEACYIGTEPWKPKEALEENGIITDKADVFAFGLTLWEMMTLCIPHVNLPDDDVDEDATFDESDFDDEAYYAALGTRPSINMEELDDSYQKAIELFCVCTNEDPKDRPSAAHIVEALELDGQCCGLSSKH | −1.167 | −1.497 | −0.959 | −0.7695 | −1.442 | down
Q9JJK5 (protein, UniProt Q9JJK5 1-391, looked up, full-length) MEPEPQPEPVTLLVKSPNQRHRDLELSGDRSWSVSRLKAHLSRVYPERPRPEDQRLIYSGKLLLDHQCLQDLLPKQEKRHVLHLVCNVKNPSKMPETSTKGAESTEQPDNSNQTQHPGDSSSDGLRQREVLRNLSPSGWENISRPEAVQQTFQGLGPGFSGYTTYGWLQLSWFQQIYARQYYMQYLAATAASGTFVPTPSAQEIPVVSTPAPAPIHNQFPAENQPANQNAAAQAVVNPGANQNLRMNAQGGPLVEEDDEINRDWLDWTYSAATFSVFLSILYFYSSLSRFLMVMGATVVMYLHHVGWFPFRQRPVQNFPDDGGPRDAANQDPNNNLQGGMDPEMEDPNRLPPDREVLDPEHTSPSFMSTAWLVFKTFFASLLPEGPPALAN | 1.444 | 1.863 | 0.766 | 1.1435 | 2.005 | up
Q9QXV0 (protein, UniProt Q9QXV0 1-258, looked up, full-length) MAGSPLLCGPRAGGVGILVLLLLGLLRLPPTLSARPVKEPRSLSAASAPLVETSTPLRLRRAVPRGEAAGAVQELARALAHLLEAERQERARAEAQEAEDQQARVLAQLLRAWGSPRASDPPLAPDDDPDAPAAQLARALLRARLDPAALAAQLVPAPAAAPRPRPPVYDDGPTGPDVEDAGDETPDVDPELLRYLLGRILTGSSEPEAAPAPRRLRRSVDQDLGPEVPPENVLGALLRVKRLENPSPQAPARRLLPP | 1.274 | 1.444 | 0.883 | 1.5975 | 1.172 | up
Q9JMH7 (protein, UniProt Q9JMH7 1-418, looked up, full-length) MEEVPPYSLSSTLFQQEEQSGVTYRIPALLYLPPTHTFLAFAEKRTSVRDEDAACLVLRRGLMKGRSVQWGPQRLLMEATLPGHRTMNPCPVWEKNTGRVYLFFICVRGHVTERCQIVWGKNAARLCFLCSEDAGCSWGEVKDLTEEVIGSEVKRWATFAVGPGHGIQLHSGRLIIPAYAYYVSRWFLCFACSVKPHSLMIYSDDFGVTWHHGKFIEPQVTGECQVAEVAGTAGNPVLYCSARTPSRFRAEAFSTDSGGCFQKPTLNPQLHEPRTGCQGSVVSFRPLKMPNTYQDSIGKGAPATQKCPLLDSPLEVEKGAETPSATWLLYSHPTSKRKRINLGIYYNRNPLEVNCWSRPWILNRGPSGYSDLAVVEEQDLVACLFECGEKNEYERIDFCLFSDHEVLSCEDCTSPSSD | −1.61 | −1.209 | −1.761 | −1.8685 | −1.601 | down
Q9QYB2 (protein, UniProt Q9QYB2 1-751, looked up, full-length) MAVPAALIPPTQLVPPQPPISTSASSSGTTTSTSSATSSPAPSIGPPASSGPTLFRPEPIASSASSSAAATVTSPGGGGGGSGGGGGSGGNGGGGGSNCNPSLAAGSSGGGVSAGGGGASSTPITASTGSSSSSSSSSSSSSSSSSSSSSSSSSSSCGPLPGKPVYSTPSPVENTPQNNECKMVDLRGAKVASFTVEGCELICLPQAFDLFLKHLVGGLHTVYTKLKRLEITPVVCNVEQVRILRGLGAIQPGVNRCKLISRKDFETLYNDCTNASSRPGRPPKRTQSVTSPENSHIMPHSVPGLMSPGIIPPTGLTAAAAAAAAATNAAIAEAMKVKKIKLEAMSNYHASNNQHGADSENGDMNSSVGSSGGSWDKETLHSPPSQGSQAPVAHARMPAAFSLPVSHPLNHLQHSHLPPNGLELPFMMMPHPLIPVSLPPASVTMAMSQMNHLSTIANMAAAAQVQSPPSRVETSVIKERVPDSPSPAPSLEEGRRPGSHPSSHRSSSVSSSPARTESSSDRIPVHQNGLSMNQMLMGLSPNVLPGPKEGDLAGHDMGHESKRIHIEKDETPLSTPTARDSIDKLSLTGHGQPLPPGFPSPFLFPDGLSSIETLLTNIQGLLKVAIDNARAQEKQVQLEKTELKMDFLRERELRETLEKQLAMEQKNRAIVQKRLKKEKKAKRKLQEALEFETKRREQAEQTLKQAASADSLRVLNDSLTPEIEADRSGGRADAERTIQDGRLYLKTTVMY | 1.286 | 0.838 | 1.286 | 1.3505 | 1.402 | up
Q9QXD6 (protein, UniProt Q9QXD6 1-338, looked up, full-length) MANHAPFETDISTLTRFVMEQGRKAQGTGELTQLLNSLCTAIKAISSAVRQAGIAQLYGIAGSTNVTGDQVKKLDILSNDLVINMLKSSYATCVLVSEENTNAIIIEPEKRGKYVVCFDPLDGSSNIDCLVSIGTIFGIYRKKSTDEPSEKDALQPGRDLVAAGYALYGSATMLVLAMDCGVNCFMLDPSIGEFIMVDRDVKMKKKGNIYSLNEGYAKDFDPAINEYLQRKKFPPDGSAPYGARYVGSMVADIHRTLVYGGIFLYPANKKSPSGKLRLLYECNPIAYVMEKAGGLATTGDKDILDIVPTEIHQKAPVVMGSSEDVQEFLEIYRKHKAK | −1.895 | −1.892 | −2.49 | −2.2475 | −0.495 | down
Q9JME5 (protein, UniProt Q9JME5 1-1082, looked up, full-length) MSAAPAYSEDKGGSAGPGEPEYGHDPASGGIFSSDYKRHDDLKEMLDTNKDSLKLEAMKRIVAMIARGKNASDLFPAVVKNVACKNIEVKKLVYVYLVRYAEEQQDLALLSISTFQRGLKDPNQLIRASALRVLSSIRVPIIVPIMMLAIKEAASDMSPYVRKTAAHAIPKLYSLDSDQKDQLIEVIEKLLADKTTLVAGSVVMAFEEVCPERIDLIHKNYRKLCNLLIDVEEWGQVVIISMLTRYARTQFLSPTQNESLLEENPEKAFYGSEEDEAKGPGSEEAATAALPARKPYVMDPDHRLLLRNTKPLLQSRSAAVVMAVAQLYFHLAPKAEVGVIAKALVRLLRSHSEVQYVVLQNVATMSIKRRGMFEPYLKSFYIRSTDPTQIKILKLEVLTNLANETNIPTVLREFQTYIRSMDKDFVAATIQAIGRCATNIGRVRDTCLNGLVQLLSNRDELVVAESVVVIKKLLQMQPAQHGEIIKHLAKLTDNIQVPMARASILWLIGEYCEHVPKIAPDVLRKMAKSFTAEEDIVKLQVINLAAKLYLTNSKQTKLLTQYVLSLAKYDQNYDIRDRARFTRQLIVPSEQGGALSRHAKKLFLAPKPAPILESSFKDRDHFQLGSLSHLLNAKATGYQELPDWPEEAPDPSVRNVEVPEWTKCSNREKRKEKEKPFYSDSEGESGPTESADSEPESESESESKSSSGSGSGESSSESDNEEEDEEKGGGSESEQSEEEDEKKKKTKKKKASEGHREGSSSEEGSDSSSSSESEVTSESEEEQVEPASWRKKTPPGSKSAPVAKEISLLDLEDFTPPSVQPVSPPMVVSTSLAADLEGLTLTDSSLVPSLLSPVSSIGRQELLHRVAGEGLSVDYAFSRQPFSGDPHMVSLHIYFSNNSETPIKGLHVGTPKLPAGISIQEFPEIESLAPGESTTTVMGINFCDSTQAANFQLCTQTRQFYVSIQPPVGELMAPVFMSENEFKKEQGKLTGMNEITEKLTLPDTCRSDHMVVQKVTATANLGRVPCGTSDEYRFAGRTLTSGSLVLLTLDARAAGAAQLTVNSEKMVIGTMLVKDVIQALTQ | −1.256 | −1.059 | −1.31 | −1.1945 | −1.459 | down
